According to publication PMC10044410:

Legend:
[1] = biological target: FM-CnoX (fluorescein-5-maleimide-labeled CnoX) (E. coli) (UniProt P77395); assay: other fluorescence titration
[2] = biological target: FM-CnoX (fluorescein-5-maleimide-labeled CnoX) (E. coli) (UniProt P77395); assay: fluorescence polarisation
[3] = biological target: GroEL (wild type, recombinant, from pET22b-groL) (E. coli) (UniProt P0A6F5); assay: SEC

Kd [1] [nM]	Kd [2] [nM]	stoichiometry N (CnoX per GroEL double ring) [3]	Substance
350	310		GroEL (untagged, from pET15b, for quantitative binding studies) (from UniProt P0A6F5 1-548) (natural protein)
		1	CnoX (wild type, recombinant, from pET22b-cnoX) (from UniProt P77395 1-284) (natural protein)
